# Data from PMC7407374, “Addressing the Molecular Mechanism of Longitudinal Lamin Assembly Using Chimeric Fusions” (Cells, 2020).
# B1: LA 22-70-Eb1 (domain or fragment, UniProt P02545 22-70, looked up)
# chain: SPTRITRLQEKEDLQELNDRLAVYIDRVRSLETENAGLRLRITESEEVVDFYFGKLRNIELICQENEGENDPVLQRIVDILYATDE
# notes: human lamin A, residues 22-70: truncated head domain, coil1A and the first three residues of linker L1; also called N-terminal fragment; N-terminal construct; source: E. coli Rosetta 2 (DE3) pLysS, purified (Ni column, tag cleavage, second Ni column, SEC); not shown: His6, N-terminal, cleaved; SUMO, N-terminal, cleaved
# B2: LA 17-70-Eb1 (domain or fragment, UniProt P02545 17-70, looked up)
# chain: SSTPLSPTRITRLQEKEDLQELNDRLAVYIDRVRSLETENAGLRLRITESEEVVDFYFGKLRNIELICQENEGENDPVLQRIVDILYATDE
# notes: human lamin A, residues 17-70: truncated head domain, coil1A and the first three residues of linker L1; also called N-terminal fragment; N-terminal construct; source: E. coli Rosetta 2 (DE3) pLysS, purified (Ni column, tag cleavage, second Ni column, SEC); not shown: His6, N-terminal, cleaved; SUMO, N-terminal, cleaved
# What was measured:
# [1] = target: Gp7_(F40C)-LA 327-403 (bacteriophage φ29 | human) (UniProt P13848); experiment: SEC-MALS; inline MALS (Dawn Heleos) on Superdex 200 Increase 10/300 GL at 20 °C; individual proteins and 1:1 mixtures; 150 mM NaCl with 10 mM Hepes pH 7.5 or 10 mM TEA pH 7.0
# [2] = target: the molecule itself; experiment: as above
Molecule,stoichiometry N [1],stoichiometry N [2]
Gp7_(F40C)-LA 327-403 (from UniProt P13848 1-49; P02545 327-403) (domain or fragment),2,–
B1,–,2
B2,–,2
